Measured values as given in US20250074972A1, “ANTIBODIES AND METHODS FOR GENERATING THE SAME” (priority 2021, published 2025).
“Also recorded” adds a separate entry of the source.

B1: 1B11 scAb: anti-Pga31 single chain antibody from naive human library; amino acid sequence SEQ ID NO: 2 (protein)
scFv: EVQLLESGGGVVQPGRSLRLSCAASGFTFSSYGMHWVRQAPGKGLEWVAVISYDGSNKYYADSVKGRFTISRDNSKNTLYLQMNSLRAEDTAVYYCARDRSGWGSLDYWGQGTLVTVSSLEGGGGSGGGGSGGGASDIVMTQSPDSLAVSLGERATINCKSSQNVLYSSNNKNYLAWYQQKSGQPPKLLIYWASTRESGVPDRFSGSGSGTDFTLTISSLQAEDVAVYYCQQYYSTPRTFGQGTKVEIK
modifications: 1B11 Amino Acid Sequence

Columns and labels:
[1] = tested on: Candida albicans strain SC5314; assay: Mouse model of disseminated Candidiasis, Study 3; type: in vivo; conditions: 1 mg/kg at 24 h and 72 h post-infection; day 7
Experimental: In study 3, the protective effect of mAb 1B11 as a prophylactic agent with single dosing 3 hours before infection followed by two dosing 24 h and 72 h post infection was investigated.
In addition, a treatment only arm with the administration of 1B11 mAb 24 h and 72 h post infection was also included.
Animals were allocated into four main groups as explained below. The treatment dose of 1B11 mAb was 12.5 mg/kg per mouse. All treatments were administered intraperitoneally (IP) in 200 μl saline.
The study plan is shown in FIG. 19 and is as follows: • Group 1—Pre-treatment with 1B11 mAb at 3 h before infection, followed by treatment at 24 h and 72 h post-infection. • Group 2—Injected with saline at 3 h before infection, treatment with 1B11 at 24 h and 72 h post-infection. • Group 3—Saline injections at all three time points • Group 4—caspofungin treatment (1 mg/kg) at 24 h and 72 h post-infection
Mice were monitored and weighed every day and were culled on day 7 post-infection and the kidneys removed aseptically. Kidneys were split […], with one half of each kidney used to determine burdens, one half frozen on OCT and one half fixed in formalin at 4° C. Burdens were determined by plating out kidney homogenate and counting colonies after 48 h growth at 30° C. Statistical comparisons were carried out using IBM SPSS version 24. […]

[2] = tested on: Candida albicans strain SC5314; assay: Mouse model of disseminated Candidiasis, Study 1; type: in vivo; conditions: caspofungin 1 mg/kg at 24 h post-infection; p=0.004
Experimental: In study 1, the protective effect of mAb 1B11 as a prophylactic agent with single dosing before and after the administration of fungal inoculum was investigated. Female BALB/c mice, 7-9 weeks old were purchased from Envigo Ltd. and randomly assigned to groups of 6 for treatment and control. The Candida albicans inoculum was prepared by growing strain SC5314 in NGY medium for 16 h, shaking at 30° C. Cells were harvested and washed with saline, then counted and resuspended in saline to provide an inoculum of approx. 2×10^4 CFU/g mouse body weight in 100 μl. Mice were infected intravenously.
Actual inoculum level was determined by plating dilutions of the inoculum on Sabouraud dextrose agar and incubating overnight at 30° C. It was determined to be 2.2×10^4 CFU/g mouse body weight.
Animals were allocated into four main groups as explained below. The treatment dose of 1B11 mAb was 15 mg/kg per mouse. All treatments were administered intraperitoneally (IP) in 150 μl saline. […]
Mice were monitored and weighed every day and were culled on day 4 post-infection and the kidneys removed aseptically. […] Burdens were determined by plating out kidney homogenate and counting colonies after 48 h growth at 30° C. […]

C. albicans (SC5314) = assay: Galleria mellonella infection model, C. albicans; type: in vivo, Candida albicans; conditions: for survival of larvae: Galleria mellonella infected with 5×10^5 C. albicans, monitored 60 h, Mantel-Cox p<0.0001
Experimental: (§1) Galleria mellonella is a reliable infection model to test and compare antibody efficacy by monitoring the survival of the larvae. Ten Galleria mellonella larvae (Livefoods Direct Ltd, Sheffield, UK) with bodyweights of =250-300 mg were used for each test group and standardised inoculum of 5×10^5 C. albicans and 5×10^7 C. auris yeast cells/larvae were injected using Hamilton syringe (Cole-Parmer, UK, washed twice with 100% ethanol and sterile dH2O between every 5 injections) via the last pro-leg. Two control groups, one with no injection and the second with PBS injection were also set up. After injection, larvae were incubated for 48-60 h at 37° C. Survival was monitored first after 24 h and then every 6 h. A Kaplan-Meier plot was generated to assess the survival of larvae infected with C. albicans and C. auris, monitoring the survival rate for 60 h (FIG. 8).
(§2) In addition, the fungal burden of various test groups was calculated by measuring the number of colony forming units (CFU) as an indicator of fungal growth within the larvae and early fungicidal/fungistatic activity of the antibody. […] (FIG. 9A).

[3] = tested on: total cell lysates of WT C. albicans (SC5314); assay: Pga31 scAbs binding ELISA on total cell lysates of WT C. albicans treated with or without caspofungin; design: species or system Candida albicans; conditions: absorbance 450 nm, cells treated or untreated with 0.032 μg/ml caspofungin
Experimental: (§3) The reaction was stopped using 1 M H2SO4 and the absorbance values measured using a microplate reader at absorbance 450 nm. For total cell lysate ELISA, C. albicans WT and pga31 single mutant strain overnight cultures were inoculated into fresh YPD at OD600 nm of 0.1-0.2, grown for 3-4 h at 30° C. until OD of 0.5-0.6 was reached and then treated with caspofungin (0.032 μg/ml) for 90 min. After 90 min growth cells were harvested, centrifuged for 5 min at 4000 rpm and washed and cell lysate was prepared. This was used to coat ELISA plates at 37° C. for 1 h, plates were washed and blocked with 2% MPBS as before, followed by the two-fold serial dilution of scAb samples.

C. auris (1716) [4] = assay: Galleria mellonella infection model, C. auris; type: in vivo, Candida auris; conditions: for survival of larvae: Galleria mellonella infected with 5×10^7 C. auris, monitored 60 h, versus non-treated, Mantel-Cox p<0.0001
Experimental: as §1, §2

C. auris (1716) [5] = assay: Biofilm formation assay (crystal violet), C. auris; type: cell-based, Candida auris
Experimental: (§4) The ability of 1B11 scAb in preventing the formation of biofilm in C. albicans ([…]) and C. auris (1716) was tested. The growth medium used were RPMI and 20% Foetal Calf Serum (FCS) and the assay was carried out in 96 well microtitre plates. Test antibody 1B11 scAb at a starting concentration of 160 μg/ml was double diluted down the plate and the top row served as positive control with cells only. The final number of cells added to each well was kept constant at 1×10^5/ml and the plate was incubated at 37° C. for 24 h. Following incubation, the biofilm plate was gently washed two times with PBS to remove non-adhering cells and allowed to dry at room temperature overnight. The biofilm was stained with 100 μl 0.05% crystal violet for 20 min followed by washing with Millipore Q water and 200 ul of 100% ethanol. Contents of each well were transferred to a new plate and absorbance was read at 570 nm wavelength.

[6] = tested on: cell lysates of pga314 mutant strain; assay: Pga31 scAbs binding ELISA on cell lysates of pga31 mutant strain; design: species or system Candida albicans; conditions: with or without 0.032 μg/ml caspofungin
Experimental: as §3

C. albicans (SC3514) = assay: Biofilm formation assay (crystal violet), C. albicans; type: cell-based, Candida albicans
Experimental: as §4

[7] = at higher concentrations (start 160 μg/ml, double diluted), 24 h incubation

Row | Molecule | kidney burdens, caspofungin group compared to saline treated group [1] | kidney organ burdens compared to saline treated mice [2] | survival of larvae (C. albicans (SC5314)) | scAb binding to lysates of caspofungin treated versus untreated cells [3] | fungal burden (colony forming units) in larvae (C. auris (1716) [4]; 4 h and 24 h incubation, versus non-treatment group) | survival of larvae (C. auris (1716) [4]) | survival of larvae (C. auris (1716) [4]; listed as anti-Pga31 antibody) | C. auris growth under biofilm-inducing conditions (C. auris (1716) [5]; 24 h, RPMI or 20% FCS) | biofilm formation (C. auris (1716) [5]; [7]) | biofilm biomass (crystal violet) compared to the control (C. auris (1716) [5]; both RPMI and 20% FCS conditions, T-test, p<0.0001, p<0.0004) | scAb binding to mutant strain lysate [6] | fungal burden (colony forming units) in larvae (C. albicans (SC5314); versus non-treatment group, statistically significant in 24 h group) | C. albicans growth under biofilm-inducing conditions (C. albicans (SC3514); 24 h, especially in 20% foetal calf serum) | biofilm biomass (crystal violet) compared to the control (C. albicans (SC3514); RPMI conditions, T test, p<0.0001) | biofilm formation (C. albicans (SC3514); [7])
1 | CC[C@H](C)C[C@H](C)CCCCCCCCC(=O)N[C@H]1C[C@@H](O)[C@@H](NCCN)NC(=O)[C@@H]2[C@@H](O)CCN2C(=O)[C@H]([C@H](O)CCN)NC(=O)[C@H]([C@H](O)[C@@H](O)c2ccc(O)cc2)NC(=O)[C@@H]2C[C@@H](O)CN2C(=O)[C@H]([C@@H](C)O)NC1=O [caspofungin, reference compound] | highly significant difference | significant decrease | significant survival percentage; also recorded: only had marginal effect | – | – | – | – | – | – | – | – | – | – | – | –
2 | B1 | – | – | significant survival percentage | increase in scAb binding | inhibited; also recorded: notable inhibition of growth | significant survival percentage | survived significantly more | did not significantly inhibit C. auris growth under biofilm-inducing conditions except at the highest concentration tested | able to inhibit biofilm formation | significantly different | lack of scAb binding | lower level of growth inhibition | significantly inhibited | significantly different | able to inhibit biofilm formation
